The values that follow are results of earlier work, collected in article PMC9200754.

For one data set, the target named is p50 (Homo sapiens) (UniProt P19838). Conditions: cited from earlier work.
The next data set deals with p65 (Homo sapiens) (UniProt Q04206). Conditions: cited from earlier work.
UniProt Q04206, sequence (Q04206 whole entry): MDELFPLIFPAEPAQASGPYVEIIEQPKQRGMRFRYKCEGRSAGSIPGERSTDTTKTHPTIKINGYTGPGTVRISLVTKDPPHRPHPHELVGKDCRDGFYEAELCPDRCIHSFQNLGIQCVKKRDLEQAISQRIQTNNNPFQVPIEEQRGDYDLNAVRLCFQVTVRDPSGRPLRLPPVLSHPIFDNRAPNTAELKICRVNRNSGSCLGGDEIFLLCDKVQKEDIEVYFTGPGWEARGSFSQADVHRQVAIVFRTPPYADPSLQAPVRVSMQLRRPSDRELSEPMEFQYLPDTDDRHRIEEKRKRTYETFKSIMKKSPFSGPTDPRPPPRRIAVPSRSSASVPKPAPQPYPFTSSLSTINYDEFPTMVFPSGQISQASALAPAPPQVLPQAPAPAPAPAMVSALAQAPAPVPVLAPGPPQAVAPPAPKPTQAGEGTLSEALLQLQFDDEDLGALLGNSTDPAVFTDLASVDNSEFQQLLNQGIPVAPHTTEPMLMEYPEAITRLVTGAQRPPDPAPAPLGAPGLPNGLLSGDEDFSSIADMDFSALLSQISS

With p50 (from UniProt P19838), the Kd was 30 nM in the data set with p50 (Homo sapiens) and 10 nM with p65 (Homo sapiens).
